{
  "source": "patent US20150104466A1",
  "about": "(WISCONSIN ALUMNI RESEARCH FOUNDATION, published 2015)",
  "key": {"β1 integrin": {"biological_target": "β1 integrin (human, UniProt P05556 21-798)", "sequence (P05556 21-798)": "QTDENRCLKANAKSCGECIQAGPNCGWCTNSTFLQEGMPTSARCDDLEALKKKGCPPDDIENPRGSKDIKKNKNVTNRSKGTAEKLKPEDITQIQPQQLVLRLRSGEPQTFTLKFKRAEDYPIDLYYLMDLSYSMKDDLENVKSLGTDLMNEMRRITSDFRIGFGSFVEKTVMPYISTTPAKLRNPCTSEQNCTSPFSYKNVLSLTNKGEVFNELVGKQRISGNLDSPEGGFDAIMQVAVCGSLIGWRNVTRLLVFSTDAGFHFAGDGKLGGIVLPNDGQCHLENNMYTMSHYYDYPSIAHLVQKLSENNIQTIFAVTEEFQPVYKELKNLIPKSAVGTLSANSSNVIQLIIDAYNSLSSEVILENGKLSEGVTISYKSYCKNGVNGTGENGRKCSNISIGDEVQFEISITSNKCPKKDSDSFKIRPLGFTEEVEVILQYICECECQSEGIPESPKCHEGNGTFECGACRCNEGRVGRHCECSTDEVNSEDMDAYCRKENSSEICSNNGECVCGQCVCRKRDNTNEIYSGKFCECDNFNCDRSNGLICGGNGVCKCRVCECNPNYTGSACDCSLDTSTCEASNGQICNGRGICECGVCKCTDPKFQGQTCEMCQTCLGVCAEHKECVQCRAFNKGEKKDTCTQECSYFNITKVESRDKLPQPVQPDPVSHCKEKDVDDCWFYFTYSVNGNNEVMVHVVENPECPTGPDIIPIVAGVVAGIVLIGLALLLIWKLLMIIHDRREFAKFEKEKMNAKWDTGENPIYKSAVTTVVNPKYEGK", "assay": "cell-based or functional assay"}, "β3 integrin": {"biological_target": "T1, β3 integrin (human, UniProt P05106 27-788)", "T1 construct": "also called β3 integrins", "T1 sequence (P05106 27-788 limits assumed)": "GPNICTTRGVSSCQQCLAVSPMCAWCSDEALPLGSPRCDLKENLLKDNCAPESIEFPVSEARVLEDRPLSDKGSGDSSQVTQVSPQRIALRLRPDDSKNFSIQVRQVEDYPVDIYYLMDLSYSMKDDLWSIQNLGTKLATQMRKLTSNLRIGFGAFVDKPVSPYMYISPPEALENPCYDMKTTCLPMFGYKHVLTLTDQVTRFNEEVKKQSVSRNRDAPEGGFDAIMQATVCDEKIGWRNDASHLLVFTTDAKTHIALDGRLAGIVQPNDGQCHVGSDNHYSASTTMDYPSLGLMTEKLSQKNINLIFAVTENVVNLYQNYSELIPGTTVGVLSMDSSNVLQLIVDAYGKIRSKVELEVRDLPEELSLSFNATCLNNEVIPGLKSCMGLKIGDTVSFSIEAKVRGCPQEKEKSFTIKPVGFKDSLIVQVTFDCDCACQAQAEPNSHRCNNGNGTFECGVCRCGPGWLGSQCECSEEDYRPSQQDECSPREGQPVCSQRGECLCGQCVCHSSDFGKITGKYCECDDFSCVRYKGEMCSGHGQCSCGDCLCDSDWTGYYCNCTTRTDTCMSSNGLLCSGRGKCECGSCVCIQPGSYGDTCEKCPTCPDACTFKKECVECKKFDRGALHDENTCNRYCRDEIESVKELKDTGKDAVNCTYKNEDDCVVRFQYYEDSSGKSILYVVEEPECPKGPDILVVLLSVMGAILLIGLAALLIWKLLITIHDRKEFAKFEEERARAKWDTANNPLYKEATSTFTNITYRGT", "assay": "His-tag pull-down on nickel beads from NHDF lysate, Western blot for β3 integrin"}},
  "note": "Several values for one entry are separate records, joined by “and”; a condition that tells them apart may be missing. Equal entries are not always repeated.",
  "data": [
    {"binder": "HCMV AD169 glycoprotein B disintegrin-like domain (amino acids 57-146), His-tagged, expressed in E. coli (other, range 57-146; also called gBDLD; gBDLD fragment; not shown: N-terminal His-Tag with thrombin cleavage site from vector pET-28a) VTSSEAVSHRANETIYNTTLKYGDVVGVNTTKYPYRVCSMAQGTDLIRFERNIICTSMKPINEDLDEGIMVVYKRNIVAHTFKVRVYQKV", "values": [
      {"measurement": "IC50 for HCMV neutralization (HCMV-GFP infectivity of NHDFs, flow cytometry)", "setting": "β1 integrin", "result": "20.5 µg/mL and 1.96 µM"},
      {"measurement": "binding result", "setting": "β3 integrin", "result": "no binding (tested: 20 µg gBDLD in 350 µL cell lysate)"}
    ]}
  ]
}
